Starred links: 1 amine or outer side, 2 acyl side, 3 side chain; linkers in the order of their positions; H or OH if unused. Non-standard residues stand in square brackets, D forms with d. Groups on a side chain read outwards from the residue. No end group written: not given here. *: point of attachment. C18 diacid = O=C(O)CCCCCCCCCCCCCCCCC(=O)*; γGlu = O=C(O)[C@H](CCC(=O)[*:2])N[*:1]; Palmitoyl = CCCCCCCCCCCCCCCC(=O)*; AEEA = NCCOCCOCC(=O)O; Aib = CC(C)(N)C(=O)O
B1: SEQ ID NO: 154 (peptide)
peptide: IVLSLDVPIGLK([AEEA-AEEA-γGlu-C18 diacid])QILLEQEKQEKEKQQAETNKRILERV-NH2
modifications: N-terminus assumed
SMILES: CC[C@H](C)[C@H](N)C(=O)N[C@H](C(=O)N[C@@H](CC(C)C)C(=O)N[C@@H](CO)C(=O)N[C@@H](CC(C)C)C(=O)N[C@@H](CC(=O)O)C(=O)N[C@H](C(=O)N1CCC[C@H]1C(=O)N[C@H](C(=O)NCC(=O)N[C@@H](CC(C)C)C(=O)N[C@@H](CCCCNC(=O)COCCOCCNC(=O)COCCOCCNC(=O)CC[C@H](NC(=O)CCCCCCCCCCCCCCCCC(=O)O)C(=O)O)C(=O)N[C@@H](CCC(N)=O)C(=O)N[C@H](C(=O)N[C@@H](CC(C)C)C(=O)N[C@@H](CC(C)C)C(=O)N[C@@H](CCC(=O)O)C(=O)N[C@@H](CCC(N)=O)C(=O)N[C@@H](CCC(=O)O)C(=O)N[C@@H](CCCCN)C(=O)N[C@@H](CCC(N)=O)C(=O)N[C@@H](CCC(=O)O)C(=O)N[C@@H](CCCCN)C(=O)N[C@@H](CCC(=O)O)C(=O)N[C@@H](CCCCN)C(=O)N[C@@H](CCC(N)=O)C(=O)N[C@@H](CCC(N)=O)C(=O)N[C@@H](C)C(=O)N[C@@H](CCC(=O)O)C(=O)N[C@H](C(=O)N[C@@H](CC(N)=O)C(=O)N[C@@H](CCCCN)C(=O)N[C@@H](CCCNC(=N)N)C(=O)N[C@H](C(=O)N[C@@H](CC(C)C)C(=O)N[C@@H](CCC(=O)O)C(=O)N[C@@H](CCCNC(=N)N)C(=O)N[C@H](C(N)=O)C(C)C)[C@@H](C)CC)[C@@H](C)O)[C@@H](C)CC)[C@@H](C)CC)C(C)C)C(C)C
B2: SEQ ID NO: 152 (peptide)
peptide: IVLSLDVPIKLK([AEEA-AEEA-γGlu-C18 diacid])QILLKQERQKK[Aib]REQAETNKRILERV-NH2
modifications: N-terminus assumed
SMILES: CC[C@H](C)[C@H](N)C(=O)N[C@H](C(=O)N[C@@H](CC(C)C)C(=O)N[C@@H](CO)C(=O)N[C@@H](CC(C)C)C(=O)N[C@@H](CC(=O)O)C(=O)N[C@H](C(=O)N1CCC[C@H]1C(=O)N[C@H](C(=O)N[C@@H](CCCCN)C(=O)N[C@@H](CC(C)C)C(=O)N[C@@H](CCCCNC(=O)COCCOCCNC(=O)COCCOCCNC(=O)CC[C@H](NC(=O)CCCCCCCCCCCCCCCCC(=O)O)C(=O)O)C(=O)N[C@@H](CCC(N)=O)C(=O)N[C@H](C(=O)N[C@@H](CC(C)C)C(=O)N[C@@H](CC(C)C)C(=O)N[C@@H](CCCCN)C(=O)N[C@@H](CCC(N)=O)C(=O)N[C@@H](CCC(=O)O)C(=O)N[C@@H](CCCNC(=N)N)C(=O)N[C@@H](CCC(N)=O)C(=O)N[C@@H](CCCCN)C(=O)N[C@@H](CCCCN)C(=O)NC(C)(C)C(=O)N[C@@H](CCCNC(=N)N)C(=O)N[C@@H](CCC(=O)O)C(=O)N[C@@H](CCC(N)=O)C(=O)N[C@@H](C)C(=O)N[C@@H](CCC(=O)O)C(=O)N[C@H](C(=O)N[C@@H](CC(N)=O)C(=O)N[C@@H](CCCCN)C(=O)N[C@@H](CCCNC(=N)N)C(=O)N[C@H](C(=O)N[C@@H](CC(C)C)C(=O)N[C@@H](CCC(=O)O)C(=O)N[C@@H](CCCNC(=N)N)C(=O)N[C@H](C(N)=O)C(C)C)[C@@H](C)CC)[C@@H](C)O)[C@@H](C)CC)[C@@H](C)CC)C(C)C)C(C)C
B3: SEQ ID NO: 153 (peptide)
peptide: Ac-IVLSLDVPIGLK([AEEA-AEEA-γGlu-C18 diacid])QILLEQEKQEKEKQQAETNAQILAQV-NH2
SMILES: CC[C@H](C)[C@H](NC(C)=O)C(=O)N[C@H](C(=O)N[C@@H](CC(C)C)C(=O)N[C@@H](CO)C(=O)N[C@@H](CC(C)C)C(=O)N[C@@H](CC(=O)O)C(=O)N[C@H](C(=O)N1CCC[C@H]1C(=O)N[C@H](C(=O)NCC(=O)N[C@@H](CC(C)C)C(=O)N[C@@H](CCCCNC(=O)COCCOCCNC(=O)COCCOCCNC(=O)CC[C@H](NC(=O)CCCCCCCCCCCCCCCCC(=O)O)C(=O)O)C(=O)N[C@@H](CCC(N)=O)C(=O)N[C@H](C(=O)N[C@@H](CC(C)C)C(=O)N[C@@H](CC(C)C)C(=O)N[C@@H](CCC(=O)O)C(=O)N[C@@H](CCC(N)=O)C(=O)N[C@@H](CCC(=O)O)C(=O)N[C@@H](CCCCN)C(=O)N[C@@H](CCC(N)=O)C(=O)N[C@@H](CCC(=O)O)C(=O)N[C@@H](CCCCN)C(=O)N[C@@H](CCC(=O)O)C(=O)N[C@@H](CCCCN)C(=O)N[C@@H](CCC(N)=O)C(=O)N[C@@H](CCC(N)=O)C(=O)N[C@@H](C)C(=O)N[C@@H](CCC(=O)O)C(=O)N[C@H](C(=O)N[C@@H](CC(N)=O)C(=O)N[C@@H](C)C(=O)N[C@@H](CCC(N)=O)C(=O)N[C@H](C(=O)N[C@@H](CC(C)C)C(=O)N[C@@H](C)C(=O)N[C@@H](CCC(N)=O)C(=O)N[C@H](C(N)=O)C(C)C)[C@@H](C)CC)[C@@H](C)O)[C@@H](C)CC)[C@@H](C)CC)C(C)C)C(C)C
B4: SEQ ID NO: 155 (peptide)
peptide: IVLSLDVPIGLK([AEEA-AEEA-γGlu-C18 diacid])QILLEQEKQEKEKQQAEKNKRILERV-NH2
modifications: N-terminus assumed
SMILES: CC[C@H](C)[C@H](N)C(=O)N[C@H](C(=O)N[C@@H](CC(C)C)C(=O)N[C@@H](CO)C(=O)N[C@@H](CC(C)C)C(=O)N[C@@H](CC(=O)O)C(=O)N[C@H](C(=O)N1CCC[C@H]1C(=O)N[C@H](C(=O)NCC(=O)N[C@@H](CC(C)C)C(=O)N[C@@H](CCCCNC(=O)COCCOCCNC(=O)COCCOCCNC(=O)CC[C@H](NC(=O)CCCCCCCCCCCCCCCCC(=O)O)C(=O)O)C(=O)N[C@@H](CCC(N)=O)C(=O)N[C@H](C(=O)N[C@@H](CC(C)C)C(=O)N[C@@H](CC(C)C)C(=O)N[C@@H](CCC(=O)O)C(=O)N[C@@H](CCC(N)=O)C(=O)N[C@@H](CCC(=O)O)C(=O)N[C@@H](CCCCN)C(=O)N[C@@H](CCC(N)=O)C(=O)N[C@@H](CCC(=O)O)C(=O)N[C@@H](CCCCN)C(=O)N[C@@H](CCC(=O)O)C(=O)N[C@@H](CCCCN)C(=O)N[C@@H](CCC(N)=O)C(=O)N[C@@H](CCC(N)=O)C(=O)N[C@@H](C)C(=O)N[C@@H](CCC(=O)O)C(=O)N[C@@H](CCCCN)C(=O)N[C@@H](CC(N)=O)C(=O)N[C@@H](CCCCN)C(=O)N[C@@H](CCCNC(=N)N)C(=O)N[C@H](C(=O)N[C@@H](CC(C)C)C(=O)N[C@@H](CCC(=O)O)C(=O)N[C@@H](CCCNC(=N)N)C(=O)N[C@H](C(N)=O)C(C)C)[C@@H](C)CC)[C@@H](C)CC)[C@@H](C)CC)C(C)C)C(C)C
B5: SEQ ID NO: 17 (peptide)
peptide: IVLSLDVPIKLK([γGlu-Palmitoyl])KILLEQEKQKKQREQAETNKQILAQV-NH2
modifications: N-terminus assumed
SMILES: CCCCCCCCCCCCCCCC(=O)N[C@@H](CCC(=O)NCCCC[C@H](NC(=O)[C@H](CC(C)C)NC(=O)[C@H](CCCCN)NC(=O)[C@@H](NC(=O)[C@@H]1CCCN1C(=O)[C@@H](NC(=O)[C@H](CC(=O)O)NC(=O)[C@H](CC(C)C)NC(=O)[C@H](CO)NC(=O)[C@H](CC(C)C)NC(=O)[C@@H](NC(=O)[C@@H](N)[C@@H](C)CC)C(C)C)C(C)C)[C@@H](C)CC)C(=O)N[C@@H](CCCCN)C(=O)N[C@H](C(=O)N[C@@H](CC(C)C)C(=O)N[C@@H](CC(C)C)C(=O)N[C@@H](CCC(=O)O)C(=O)N[C@@H](CCC(N)=O)C(=O)N[C@@H](CCC(=O)O)C(=O)N[C@@H](CCCCN)C(=O)N[C@@H](CCC(N)=O)C(=O)N[C@@H](CCCCN)C(=O)N[C@@H](CCCCN)C(=O)N[C@@H](CCC(N)=O)C(=O)N[C@@H](CCCNC(=N)N)C(=O)N[C@@H](CCC(=O)O)C(=O)N[C@@H](CCC(N)=O)C(=O)N[C@@H](C)C(=O)N[C@@H](CCC(=O)O)C(=O)N[C@H](C(=O)N[C@@H](CC(N)=O)C(=O)N[C@@H](CCCCN)C(=O)N[C@@H](CCC(N)=O)C(=O)N[C@H](C(=O)N[C@@H](CC(C)C)C(=O)N[C@@H](C)C(=O)N[C@@H](CCC(N)=O)C(=O)N[C@H](C(N)=O)C(C)C)[C@@H](C)CC)[C@@H](C)O)[C@@H](C)CC)C(=O)O
B6: SEQ ID NO: 156 (peptide)
peptide: IVLSLDVPIGLK([AEEA-AEEA-γGlu-C18 diacid])QILLKQERQKK[Aib]REQAETNAQILAQV-NH2
modifications: N-terminus assumed
SMILES: CC[C@H](C)[C@H](N)C(=O)N[C@H](C(=O)N[C@@H](CC(C)C)C(=O)N[C@@H](CO)C(=O)N[C@@H](CC(C)C)C(=O)N[C@@H](CC(=O)O)C(=O)N[C@H](C(=O)N1CCC[C@H]1C(=O)N[C@H](C(=O)NCC(=O)N[C@@H](CC(C)C)C(=O)N[C@@H](CCCCNC(=O)COCCOCCNC(=O)COCCOCCNC(=O)CC[C@H](NC(=O)CCCCCCCCCCCCCCCCC(=O)O)C(=O)O)C(=O)N[C@@H](CCC(N)=O)C(=O)N[C@H](C(=O)N[C@@H](CC(C)C)C(=O)N[C@@H](CC(C)C)C(=O)N[C@@H](CCCCN)C(=O)N[C@@H](CCC(N)=O)C(=O)N[C@@H](CCC(=O)O)C(=O)N[C@@H](CCCNC(=N)N)C(=O)N[C@@H](CCC(N)=O)C(=O)N[C@@H](CCCCN)C(=O)N[C@@H](CCCCN)C(=O)NC(C)(C)C(=O)N[C@@H](CCCNC(=N)N)C(=O)N[C@@H](CCC(=O)O)C(=O)N[C@@H](CCC(N)=O)C(=O)N[C@@H](C)C(=O)N[C@@H](CCC(=O)O)C(=O)N[C@H](C(=O)N[C@@H](CC(N)=O)C(=O)N[C@@H](C)C(=O)N[C@@H](CCC(N)=O)C(=O)N[C@H](C(=O)N[C@@H](CC(C)C)C(=O)N[C@@H](C)C(=O)N[C@@H](CCC(N)=O)C(=O)N[C@H](C(N)=O)C(C)C)[C@@H](C)CC)[C@@H](C)O)[C@@H](C)CC)[C@@H](C)CC)C(C)C)C(C)C

Biological target: human corticotropin-releasing factor 2α (CRF2 α receptor) (human), Q13324
Assay: cell-based or functional assay

human corticotropin-releasing factor 2α (CRF2 α receptor) (human), Q13324, sequence (Q13324 20-411): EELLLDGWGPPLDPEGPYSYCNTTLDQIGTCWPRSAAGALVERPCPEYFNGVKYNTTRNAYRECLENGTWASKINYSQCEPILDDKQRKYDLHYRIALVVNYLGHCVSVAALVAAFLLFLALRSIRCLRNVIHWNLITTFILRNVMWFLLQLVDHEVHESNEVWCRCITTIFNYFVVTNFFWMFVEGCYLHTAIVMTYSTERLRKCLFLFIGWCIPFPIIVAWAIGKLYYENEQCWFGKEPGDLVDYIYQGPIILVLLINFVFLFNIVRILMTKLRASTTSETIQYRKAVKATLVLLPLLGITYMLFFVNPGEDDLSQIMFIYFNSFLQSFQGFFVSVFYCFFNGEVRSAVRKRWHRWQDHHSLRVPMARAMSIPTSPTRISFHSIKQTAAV

Row | EC50 [nM], 0% HSA [nM] | EC50 [nM], 0.1% HSA [nM] | Binder
1 | 15 | 15.3 | B1
2 | 0.09 | 4.94 | B2
3 | 33.7 | – | B3
4 | 8.87 | – | B4
5 | 0.02 | – | B5
6 | 1.06 | – | B6

Reference: patent US12679878B2, “CRF2 receptor agonists and their use in therapy” (SANOFI, priority 2020, dated 2026)
